Laboratory results reported in US20220175839.

Assays:
Test in all cases: cell_activity
[1] = system: TALEN 103081 (synthetic); conditions: pair with 103082; K562, 400 ng
[2] = system: TALEN 103073 (synthetic); conditions: pair with 103074; K562, 400 ng
[3] = system: TALEN 103094 (synthetic); conditions: pair with 103093; K562, 400 ng
[4] = system: TALEN 103098 (synthetic); conditions: pair with 103097; K562, 400 ng
[5] = system: TALEN 103064 (synthetic); conditions: pair with 103063; K562, 400 ng
[6] = system: TALEN 103086 (synthetic); conditions: pair with 103085; K562, 400 ng
[7] = system: TALEN 103072 (synthetic); conditions: pair with 103071; K562, 400 ng
[8] = system: TALEN 103061 (synthetic); conditions: pair with 103062; K562, 400 ng
[9] = system: TALEN 103070 (synthetic); conditions: pair with 103069; K562, 400 ng
[10] = system: TALEN 103088 (synthetic); conditions: pair with 103087; K562, 400 ng
[11] = system: TALEN 103062 (synthetic); conditions: pair with 103061; K562, 400 ng
[12] = system: TALEN 103054 (synthetic); conditions: pair with 103053; K562, 400 ng
[13] = system: TALEN 103071 (synthetic); conditions: pair with 103072; K562, 400 ng
[14] = system: TALEN 103087 (synthetic); conditions: pair with 103088; K562, 400 ng
[15] = system: TALEN 103100 (synthetic); conditions: pair with 103099; K562, 400 ng
[16] = system: SBS55254 ZFN (TCRA) (synthetic); conditions: pair with 55248; T cells, TRAC 180, day 10
[17] = system: TALEN 103085 (synthetic); conditions: pair with 103086; K562, 400 ng
[18] = system: TALEN 103090 (synthetic); conditions: pair with 103089; K562, 400 ng
[19] = system: TALEN 103069 (synthetic); conditions: pair with 103070; K562, 400 ng
[20] = system: TALEN 103067 (synthetic); conditions: pair with 103068; K562, 400 ng
[21] = system: TALEN 103058 (synthetic); conditions: pair with 103057; K562, 400 ng
[22] = system: TALEN 103083 (synthetic); conditions: pair with 103084; K562, 400 ng
[23] = system: TALEN 103084 (synthetic); conditions: pair with 103083; K562, 400 ng
[24] = system: TALEN 103066 (synthetic); conditions: pair with 103065; K562, 400 ng
[25] = system: TALEN 103065 (synthetic); conditions: pair with 103066; K562, 400 ng
[26] = system: TALEN 103095 (synthetic); conditions: pair with 103096; K562, 400 ng
[27] = system: TALEN 103051 (synthetic); conditions: pair with 103052; K562, 400 ng
[28] = system: TALEN 103097 (synthetic); conditions: pair with 103098; K562, 400 ng
[29] = system: TALEN 103068 (synthetic); conditions: pair with 103067; K562, 400 ng
[30] = system: TALEN 103093 (synthetic); conditions: pair with 103094; K562, 400 ng
[31] = system: TALEN 103050 (synthetic); conditions: pair with 103049; K562, 400 ng
[32] = system: TALEN 103089 (synthetic); conditions: pair with 103090; K562, 400 ng
[33] = system: TALEN 103079 (synthetic); conditions: pair with 103080; K562, 400 ng
[34] = system: TALEN 103057 (synthetic); conditions: pair with 103058; K562, 400 ng
[35] = system: TALEN 103082 (synthetic); conditions: pair with 103081; K562, 400 ng
[36] = system: TALEN 103055 (synthetic); conditions: pair with 103056; K562, 400 ng
[37] = system: TALEN 103096 (synthetic); conditions: pair with 103095; K562, 400 ng
[38] = system: TALEN 103049 (synthetic); conditions: pair with 103050; K562, 400 ng
[39] = system: TALEN 103075 (synthetic); conditions: pair with 103076; K562, 400 ng
[40] = system: TALEN 103074 (synthetic); conditions: pair with 103073; K562, 400 ng
[41] = system: TALEN 103091 (synthetic); conditions: pair with 103092; K562, 400 ng
[42] = system: TALEN 103101 (synthetic); conditions: pair with 103102; K562, 400 ng
[43] = system: TALEN 103063 (synthetic); conditions: pair with 103064; K562, 400 ng
[44] = system: TALEN 103076 (synthetic); conditions: pair with 103075; K562, 400 ng
[45] = system: TALEN 103052 (synthetic); conditions: pair with 103051; K562, 400 ng
[46] = system: TALEN 103099 (synthetic); conditions: pair with 103100; K562, 400 ng
[47] = system: TALEN 103056 (synthetic); conditions: pair with 103055; K562, 400 ng
[48] = system: TALEN 103053 (synthetic); conditions: pair with 103054; K562, 400 ng
[49] = system: TALEN 103092 (synthetic); conditions: pair with 103091; K562, 400 ng
[50] = system: TALEN 103077 (synthetic); conditions: pair with 103078; K562, 400 ng

GTCTGGGTTTCATCCATCCGA (double strand) [TALEN 103081 site]
activity [1]: 27.5 % indel

CTCACGTCATCCAGCAGAGAA (double strand) [TALEN 103073 site]
activity [2]: 3 % indel

CTTGCTGAAAGACAAGTCTGA (double strand) [TALEN 103094 site]
activity [3]: 20.2 % indel

ATTCAGTGTAGTACAAGAGAT (double strand) [TALEN 103098 site]
activity [4]: 52 % indel

ATGACGTGAGTAAACCTGAAT (double strand) [TALEN 103064 site]
activity [5]: 14.8 % indel

TTCAATTCTCTCTCCATTCTT (double strand) [TALEN 103086 site]
activity [6]: 3.9 % indel

TTGACTTTCCATTCTCTGCTG (double strand) [TALEN 103072 site]
activity [7]: 13.3 % indel

GTGTCTTTTCCCGATATTCCT (double strand) [TALEN 103061 site]
activity [8]: 22.9 % indel

TTTCCATTCTCTGCTGGATGA (double strand) [TALEN 103070 site]
activity [9]: 27.9 % indel

CTTTTTCAATTCTCTCTCCAT (double strand) [TALEN 103088 site]
activity [10]: 10.5 % indel

GTGAGTAAACCTGAATCTTTG (double strand) [TALEN 103062 site]
activity [11]: 22.9 % indel

ATAGCCTCCAGGCCAGAAAGA (double strand) [TALEN 103054 site]
activity [12]: 32.4 % indel

CTCCAAAGATTCAGGTTTACT (double strand) [TALEN 103071 site]
activity [13]: 13.3 % indel

ATCCGACATTGAAGTTGACTT (double strand) [TALEN 103087 site]
activity [14]: 10.5 % indel

GTGAATTCAGTGTAGTACAAG (double strand) [TALEN 103100 site]
activity [15]: 15.3 % indel

CTCCTGAAAGTGGCCGGGTTTAATCTGC (double strand) [TCRA 55254 site]
activity [16]: 66 % indel

ATCCATCCGACATTGAAGTTG (double strand) [TALEN 103085 site]
activity [17]: 3.9 % indel

ATGCTCCACTTTTTCAATTCT (double strand) [TALEN 103090 site]
activity [18]: 16.1 % indel

GTACTCCAAAGATTCAGGTTT (double strand) [TALEN 103069 site]
activity [19]: 27.9 % indel

CTCAGGTACTCCAAAGATTCA (double strand) [TALEN 103067 site]
activity [20]: 49.3 % indel

CTCACGCTGGATAGCCTCCAG (double strand) [TALEN 103058 site]
activity [21]: 46.2 % indel

TTTCATCCATCCGACATTGAA (double strand) [TALEN 103083 site]
activity [22]: 32.2 % indel

TTCTCTCTCCATTCTTCAGTA (double strand) [TALEN 103084 site]
activity [23]: 32.2 % indel

CTCTGCTGGATGACGTGAGTA (double strand) [TALEN 103066 site]
activity [24]: 41.2 % indel

TTCCTCAGGTACTCCAAAGAT (double strand) [TALEN 103065 site]
activity [25]: 41.2 % indel

TTCAGACTTGTCTTTCAGCAA (double strand) [TALEN 103095 site]
activity [26]: 42 % indel

CTCCGTGGCCTTAGCTGTGCT (double strand) [TALEN 103051 site]
activity [27]: 63.8 % indel

CTTGTCTTTCAGCAAGGACTG (double strand) [TALEN 103097 site]
activity [28]: 52 % indel

ATTCTCTGCTGGATGACGTGA (double strand) [TALEN 103068 site]
activity [29]: 49.3 % indel

ATGGAGAGAGAATTGAAAAAG (double strand) [TALEN 103093 site]
activity [30]: 20.2 % indel

GTAGCGCGAGCACAGCTAAGG (double strand) [TALEN 103050 site]
activity [31]: 19.5 % indel

TTGAAGTTGACTTACTGAAGA (double strand) [TALEN 103089 site]
activity [32]: 16.1 % indel

ATGTGTCTGGGTTTCATCCAT (double strand) [TALEN 103079 site]
activity [33]: 42.3 % indel

CTGTGCTCGCGCTACTCTCTC (double strand) [TALEN 103057 site]
activity [34]: 46.2 % indel

CTCCATTCTTCAGTAAGTCAA (double strand) [TALEN 103082 site]
activity [35]: 27.5 % indel

CTTAGCTGTGCTCGCGCTACT (double strand) [TALEN 103055 site]
activity [36]: 25.1 % indel

GTGTAGTACAAGAGATAGAAA (double strand) [TALEN 103096 site]
activity [37]: 42 % indel

ATTCGGGCCGAGATGTCTCGC (double strand) [TALEN 103049 site]
activity [38]: 19.5 % indel

TTCCTGAATTGCTATGTGTCT (double strand) [TALEN 103075 site]
activity [39]: 1.5 % indel

ATAGCAATTCAGGAAATTTGA (double strand) [TALEN 103074 site]
activity [40]: 3 % indel

GTTGACTTACTGAAGAATGGA (double strand) [TALEN 103091 site]
activity [41]: 48.5 % indel

CTGGTCTTTCTATCTCTTGTA (double strand) [TALEN 103101 site]
activity [42]: 15.5 % indel

TTTTCCCGATATTCCTCAGGT (double strand) [TALEN 103063 site]
activity [43]: 14.8 % indel

GTCAACTTCAATGTCGGATGG (double strand) [TALEN 103076 site]
activity [44]: 1.5 % indel

CTCCAGGCCAGAAAGAGAGAG (double strand) [TALEN 103052 site]
activity [45]: 63.8 % indel

CTTTCAGCAAGGACTGGTCTT (double strand) [TALEN 103099 site]
activity [46]: 15.3 % indel

CTGGATAGCCTCCAGGCCAGA (double strand) [TALEN 103056 site]
activity [47]: 25.1 % indel

GTGGCCTTAGCTGTGCTCGCG (double strand) [TALEN 103053 site]
activity [48]: 32.4 % indel

GTCTGAATGCTCCACTTTTTC (double strand) [TALEN 103092 site]
activity [49]: 48.5 % indel

CTATGTGTCTGGGTTTCATCC (double strand) [TALEN 103077 site]
activity [50]: 17.1 % indel
